Reference: patent US20250276018A1 (AFFYIMMUNE THERAPEUTICS, published 2025)
Each block holds one binder with its values, some of them ahead of it.

Assays:
[1] = target: T1, c-MET on human target cells (human, UniProt P08581 25-1390); test: cell-based or functional assay
[2] = target: T2, AF647 labeled c-met protein (UniProt P08581 25-932, limits assumed, labeled with AlexaFluor 647 (AF647)); test: flow cytometry, EC50 relative to parental Affy6 CAR-T cells (Round 1)
T2 construct: Soluble labeled c-met protein titrated on CAR-T cells
T2 sequence (P08581 25-932 limits assumed): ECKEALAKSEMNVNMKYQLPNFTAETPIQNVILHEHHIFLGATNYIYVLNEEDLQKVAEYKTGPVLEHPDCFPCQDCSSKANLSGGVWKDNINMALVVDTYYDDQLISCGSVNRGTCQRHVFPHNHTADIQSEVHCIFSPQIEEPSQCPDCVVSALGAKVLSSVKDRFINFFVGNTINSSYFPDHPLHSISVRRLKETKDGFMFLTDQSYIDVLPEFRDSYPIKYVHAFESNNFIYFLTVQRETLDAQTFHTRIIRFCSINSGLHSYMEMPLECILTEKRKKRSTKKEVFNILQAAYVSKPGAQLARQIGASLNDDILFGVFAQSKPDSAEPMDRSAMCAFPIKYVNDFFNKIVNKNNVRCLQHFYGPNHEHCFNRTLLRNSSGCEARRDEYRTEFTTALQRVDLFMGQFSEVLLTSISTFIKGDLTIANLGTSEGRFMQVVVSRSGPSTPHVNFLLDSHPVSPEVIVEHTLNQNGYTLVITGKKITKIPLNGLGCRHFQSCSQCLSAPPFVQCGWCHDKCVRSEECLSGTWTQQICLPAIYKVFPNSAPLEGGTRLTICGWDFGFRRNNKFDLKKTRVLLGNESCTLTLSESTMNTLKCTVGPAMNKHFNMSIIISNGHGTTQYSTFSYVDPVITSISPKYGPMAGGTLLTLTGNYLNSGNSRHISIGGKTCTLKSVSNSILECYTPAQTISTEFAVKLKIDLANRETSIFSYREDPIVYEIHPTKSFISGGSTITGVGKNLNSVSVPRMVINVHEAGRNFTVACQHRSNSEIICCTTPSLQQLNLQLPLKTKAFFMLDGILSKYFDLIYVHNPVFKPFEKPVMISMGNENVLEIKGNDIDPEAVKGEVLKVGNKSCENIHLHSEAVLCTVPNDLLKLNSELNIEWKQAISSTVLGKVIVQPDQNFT
Description: (§1) Binding of labeled c-MET to CAR-T cells expressing the affinity tuned c-MET scFvs was evaluated by transducing lentivirus anti-c-MET CAR particles into human T cells to form c-MET CAR-T cells incubated with AF647-labeled c-MET. […] Following a 48 hr. incubation at 37° C., the culture media was brought up to […] per well and incubated at 37° C. for 10 days.
(§2) Cells were stained on ice for 30 mins and then washed with PBS. After washing, residually bound protein on CAR T cells were measured on a flow cytometer (Beckman, CytoFLEX®). The resulting binding data was fit using a non-linear regression analysis on GraphPad Prism to calculate half effective dose concentration (EC₅₀) values. The results of this analysis are shown in FIGS. 2-5 and Tables 2-5 below.

[3] = target: T2, AF647 labeled c-met protein; test: flow cytometry, AF647-labeled c-met protein titrated on CAR-T cells (Round 1)
Description: as §1, §2

[4] = target: T1, c-MET on human target cells; test: cell-based or functional assay; remark: listed apart in the source
[5] = target: T1, c-MET on human target cells; test: cell-based or functional assay; remark: listed apart in the source
[6] = target: T1, c-MET on human target cells; test: cell-based or functional assay; remark: listed apart in the source
[7] = target: T1, c-MET on human target cells; test: cell-based or functional assay; remark: listed apart in the source
[8] = target: T2, AF647 labeled c-met protein; test: flow cytometry, EC50 relative to parental Affy7 CAR-T cells (Round 1)
Description: as §1, §2

[9] = target: T2, AF647 labeled c-met protein; test: flow cytometry, AF647-labeled c-met protein on CAR-T cells; lower end tied to Affy7-L9A by Table 2
Description: as §2

T1 sequence (P08581 25-1390): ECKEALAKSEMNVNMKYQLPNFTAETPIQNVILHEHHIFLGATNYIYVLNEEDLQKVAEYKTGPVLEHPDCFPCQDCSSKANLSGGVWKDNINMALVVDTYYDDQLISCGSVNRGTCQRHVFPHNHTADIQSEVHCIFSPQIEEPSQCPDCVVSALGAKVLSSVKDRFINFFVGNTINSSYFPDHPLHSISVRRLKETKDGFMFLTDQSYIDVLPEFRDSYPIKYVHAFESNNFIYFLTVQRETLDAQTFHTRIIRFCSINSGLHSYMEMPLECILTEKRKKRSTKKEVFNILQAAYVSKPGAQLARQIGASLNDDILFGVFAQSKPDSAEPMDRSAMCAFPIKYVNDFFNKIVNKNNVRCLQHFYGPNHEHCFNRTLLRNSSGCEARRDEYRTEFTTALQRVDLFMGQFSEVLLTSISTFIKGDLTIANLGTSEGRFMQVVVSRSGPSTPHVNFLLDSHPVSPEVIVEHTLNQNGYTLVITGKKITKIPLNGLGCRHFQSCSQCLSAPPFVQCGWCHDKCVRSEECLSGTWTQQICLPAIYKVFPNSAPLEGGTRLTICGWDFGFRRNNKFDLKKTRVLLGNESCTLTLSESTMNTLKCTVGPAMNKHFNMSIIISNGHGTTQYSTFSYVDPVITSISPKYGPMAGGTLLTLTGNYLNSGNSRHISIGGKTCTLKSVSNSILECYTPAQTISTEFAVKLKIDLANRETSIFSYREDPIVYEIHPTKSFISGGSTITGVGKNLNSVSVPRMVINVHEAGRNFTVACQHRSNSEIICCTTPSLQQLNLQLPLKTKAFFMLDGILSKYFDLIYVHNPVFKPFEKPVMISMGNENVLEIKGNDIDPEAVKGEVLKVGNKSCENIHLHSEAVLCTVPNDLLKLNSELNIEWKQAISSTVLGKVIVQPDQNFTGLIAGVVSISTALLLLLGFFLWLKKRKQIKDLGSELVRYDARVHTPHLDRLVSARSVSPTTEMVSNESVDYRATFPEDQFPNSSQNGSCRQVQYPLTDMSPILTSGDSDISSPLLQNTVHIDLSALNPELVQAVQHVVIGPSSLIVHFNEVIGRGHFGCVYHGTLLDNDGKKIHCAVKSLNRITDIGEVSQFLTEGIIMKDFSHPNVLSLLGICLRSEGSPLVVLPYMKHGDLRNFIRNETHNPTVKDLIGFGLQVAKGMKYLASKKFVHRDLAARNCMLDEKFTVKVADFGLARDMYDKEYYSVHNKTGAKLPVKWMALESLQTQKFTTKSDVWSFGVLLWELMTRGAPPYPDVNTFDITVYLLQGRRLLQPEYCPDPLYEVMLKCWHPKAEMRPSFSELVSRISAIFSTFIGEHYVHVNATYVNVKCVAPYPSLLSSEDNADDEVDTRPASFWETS

Fold Change [2]: 956 fold | EC50 [3]: 20.9 µM
B1: Affy6-I3A CAR (other)
chain: GSEQKLISEEDLGSQVQLVQSGAEVKKPGASVKVSCKASGYIFTAYTMHWVRQAPGQGLEWMGWIKPNNGLANYAQKFQGRVTMTRDTSISTAYMELSRLRSDDTAVYYCARSEATTEFDYWGQGTLVTVSSGGGGSGGGGSGGGGSDIVLTQSPDSLAVSLGERATINCKSSESVDSYANSFMHWYQQKPGQPPKLLIYRASTRESGVPDRFSGSGSRTDFTLTISSLQAEDVAVYYCQQSKEDPLTFGGGTKVEIKASTTTPAPRPPTPAPTIASQPLSLRPEACRPAAGGAVHTRGLDFACDFWVLVVVGGVLACYSLLVTVAFIIFWVRSKRSRLLHSDYMNMTPRRPGPTRKHYQPYAPPRDFAAYRSLRVKFSRSADAPAYQQGQNQLYNELNLGRREEYDVLDKRRGRDPEMGGKPRRKNPQEGLYNELQKDKMAEAYSEIGMKGERRRGKGHDGLYQGLSTATKDTYDALHMQALPPR
notes: CAR on transduced human T cells; I to A in HC CDR3; P2A remnant not included; also called MycTAffy6-I3A CAR-SSTR2
percent cytotoxicity, H1993, 24 hrs [1]: 73.1% | percent cytotoxicity, H1993, 48 hrs [1]: 95.3% | percent cytotoxicity, H1993, 72 hrs [1]: 98.9%

Fold Change [8]: 20 fold | EC50 [3]: 1 µM | fold reduction in affinity relative to the parental-expressing CARs [9]: 20 to 7640 fold
B2: Affy7-L9A CAR (other)
chain: GSEQKLISEEDLGSQVQLQQSGPELVRPGASVKMSCRASGYTFTSYWLHWVKQRPGQGLEWIGMIDPSNSDTRFNPNFKDKATLNVDRSSNTAYMLLSSLTSADSAVYYCATYGSYVSPADYWGQGTSVTVSSGGGGSGGGGSGGGGSDIMMSQSPSSLTVSVGEKVTVSCKSSQSLLYTSSQKNYLAWYQQKPGQSPKLLIYWASTRESGVPDRFTGSGSGTDFTLTITSVKADDLAVYYCQQYYAYPWTFGGGTKLEIKRASTTTPAPRPPTPAPTIASQPLSLRPEACRPAAGGAVHTRGLDFACDFWVLVVVGGVLACYSLLVTVAFIIFWVRSKRSRLLHSDYMNMTPRRPGPTRKHYQPYAPPRDFAAYRSLRVKFSRSADAPAYQQGQNQLYNELNLGRREEYDVLDKRRGRDPEMGGKPRRKNPQEGLYNELQKDKMAEAYSEIGMKGERRRGKGHDGLYQGLSTATKDTYDALHMQALPPR
notes: CAR on transduced human T cells; L to A in HC CDR3; P2A remnant not included; also called MycT-Affy7-L9A CAR-SSTR2
cytotoxicity, Normal Human Lung Cells, 8 hrs [4]: 7.5 | cytotoxicity, Normal Human Lung Cells, 16 hrs [4]: 20.9 | cytotoxicity, Normal Human Lung Cells, 24 hrs [4]: 38.3 | cytotoxicity, Normal Human Lung Cells, 32 hrs [4]: 46.4 | cytotoxicity, Normal Human Lung Cells, 40 hrs [4]: 50.7 | cytotoxicity, Normal Human Lung Cells, 47 hrs [4]: 45.3 | cytotoxicity, Normal Human Liver Cells, 8 hrs [5]: 13.7 | cytotoxicity, Normal Human Liver Cells, 16 hrs [5]: 24.5 | cytotoxicity, Normal Human Liver Cells, 24 hrs [5]: 32.8 | cytotoxicity, Normal Human Liver Cells, 32 hrs [5]: 37.9 | cytotoxicity, Normal Human Liver Cells, 40 hrs [5]: 50.1 | cytotoxicity, Normal Human Liver Cells, 48 hrs [5]: 60 | cytotoxicity, Normal Human Kidney Cells, 8 hrs [6]: 12.9 | cytotoxicity, Normal Human Kidney Cells, 16 hrs [6]: 23.9 | cytotoxicity, Normal Human Kidney Cells, 24 hrs [6]: 30.7 | cytotoxicity, Normal Human Kidney Cells, 32 hrs [6]: 38.8 | cytotoxicity, Normal Human Kidney Cells, 40 hrs [6]: 46.9 | cytotoxicity, Normal Human Kidney Cells, 48 hrs [6]: 54.7 | cytotoxicity, Normal Human Colon Cells, 8 hrs [7]: 12.1 | cytotoxicity, Normal Human Colon Cells, 16 hrs [7]: 25 | cytotoxicity, Normal Human Colon Cells, 24 hrs [7]: 27.2 | cytotoxicity, Normal Human Colon Cells, 32 hrs [7]: 38.2 | cytotoxicity, Normal Human Colon Cells, 40 hrs [7]: 48.5 | cytotoxicity, Normal Human Colon Cells, 48 hrs [7]: 49.6
